# Laboratory results from publication PMC8703291, “Non-Cationic RGD-Containing Protein Nanocarrier for Tumor-Targeted siRNA Delivery” (Pharmaceutics, 2021).
# B1: dual-RGD-dsRBD-18his (dual-RGD) recombinant protein (designed binder)
# chain: CDCRGDCFCAGDLSAGFFMEELNTYRQKQGVVLKYQELPNSGPPHDRRFTFQVIIDGREFPEGEGRSKKEAKNAAAKLAVEILNKEKKAVSPLLLTTTNSSEGLSMGNYIGLINRIAQKKRLTVNYEQCASGVHGPEGFHYKCKMGQKEYSIGTGSTKQEAKQLAAKLAYLQILSEETSVGRGDS
# notes: cyclic RGD peptide RGD-4C appended to the N-terminal of dsRBD-18His; linear GRGDS (Gly-Arg-Gly-Asp-Ser) peptide added to the C-terminal of dsRBD-18His; MW ~26 kDa (monomer); also called dual-RGD carrier; source: E. coli BL21 (DE3), purified (nickel resin), dialysed against PBS with 10% glycerol and 0.1% β-ME
# Target: the molecule itself
# Assay: non-reducing SDS-PAGE; purified dual-RGD under non-reducing conditions, Coomassie blue staining
protein,measurement,value
B1,stoichiometry N,2
